Source: patent US20260207766A1 (Bristol-Myers Squibb, published 2026)

Columns and labels:
[1] = biological target: T1, human CEACAM5 on cells (human, UniProt P06731 35-685); test: FACS on LS174T cells
T1 construct: Endogenous on MKN45, Ls174T, BxPC-3; overexpressed on HCT116; also called huCEACAM5; HCT116-huCEACAM5
T1 sequence: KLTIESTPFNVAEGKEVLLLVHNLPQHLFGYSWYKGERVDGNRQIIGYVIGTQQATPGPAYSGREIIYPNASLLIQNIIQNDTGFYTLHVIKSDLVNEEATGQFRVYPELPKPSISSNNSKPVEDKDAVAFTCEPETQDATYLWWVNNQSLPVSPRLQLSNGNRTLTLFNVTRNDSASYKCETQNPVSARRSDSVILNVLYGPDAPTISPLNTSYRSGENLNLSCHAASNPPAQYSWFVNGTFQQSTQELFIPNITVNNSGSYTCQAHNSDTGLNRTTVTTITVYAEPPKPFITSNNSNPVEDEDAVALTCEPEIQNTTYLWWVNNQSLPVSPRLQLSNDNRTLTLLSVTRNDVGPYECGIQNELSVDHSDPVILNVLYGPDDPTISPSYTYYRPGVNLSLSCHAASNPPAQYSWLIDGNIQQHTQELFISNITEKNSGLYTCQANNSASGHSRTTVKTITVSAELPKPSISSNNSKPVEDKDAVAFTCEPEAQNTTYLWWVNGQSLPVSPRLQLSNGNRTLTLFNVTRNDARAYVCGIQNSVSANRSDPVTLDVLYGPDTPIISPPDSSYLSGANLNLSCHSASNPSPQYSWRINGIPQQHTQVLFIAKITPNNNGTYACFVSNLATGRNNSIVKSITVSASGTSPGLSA

[2] = biological target: T1, human CEACAM5 on cells; test: cell-based or functional assay
[3] = biological target: T2, full-length human CEACAM5 (recombinant, internally generated) (human, UniProt P06731 35-685, limits assumed); test: SPR Biacore, mAb captured on anti-human Fc, full-length antigen analyte, 1:1 fit
T2 construct: Printed only as 'full-length'; also called Full-length huCEACAM5; biotinylated human CEACAM5
T2 sequence: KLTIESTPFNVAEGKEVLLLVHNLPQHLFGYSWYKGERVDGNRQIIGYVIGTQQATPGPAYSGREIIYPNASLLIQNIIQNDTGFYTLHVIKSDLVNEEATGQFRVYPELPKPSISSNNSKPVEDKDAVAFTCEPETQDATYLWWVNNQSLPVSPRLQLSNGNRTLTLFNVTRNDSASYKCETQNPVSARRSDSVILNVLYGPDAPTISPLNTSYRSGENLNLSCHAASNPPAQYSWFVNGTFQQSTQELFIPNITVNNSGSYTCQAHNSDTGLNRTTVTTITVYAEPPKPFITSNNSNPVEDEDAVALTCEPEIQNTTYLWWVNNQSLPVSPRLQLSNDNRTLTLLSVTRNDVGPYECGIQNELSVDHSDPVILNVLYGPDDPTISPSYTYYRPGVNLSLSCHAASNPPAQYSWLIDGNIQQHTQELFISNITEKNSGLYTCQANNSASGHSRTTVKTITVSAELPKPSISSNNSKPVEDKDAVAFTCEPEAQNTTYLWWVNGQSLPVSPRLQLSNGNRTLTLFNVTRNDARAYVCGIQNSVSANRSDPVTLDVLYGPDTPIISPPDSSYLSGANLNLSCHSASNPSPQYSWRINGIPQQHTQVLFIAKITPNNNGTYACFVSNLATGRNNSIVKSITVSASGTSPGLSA
Description: The BIACORE® instrument was primed with 1×HBSP+ running buffer (Cytiva catalog no. BR100671). The CM5 chip (Cytiva catalog no. 29149604) was equilibrated to room temperature, and the BIACORE® instrument was re-primed. A human antibody Fc capture kit (Cytiva catalog no. 29234600) was utilized for this analysis. The human antibody Fc capture reagent was immobilized to both flow cells in all 8 flow channels of the CM5 chip via amine-coupling using the following conditions. Immobilization was performed at a temperature of 25° C. The anti-human Fc capture reagent was diluted to a concentration of 25 μg/mL in acetate pH5 buffer. The chip surface was activated by injecting a mixture of 1-ethyl-3-(-3-dimethylaminopropyl) carbodiimide hydrochloride (EDC) and N-hydroxy succinimide (NHS) for 420 seconds at a rate of 10 microliters per minute (uL/min). A concentration (25 ug/mL) of anti-human Fc capture reagent was then injected on the surface for 420 seconds at a rate of 10 uL/min. The remaining chip surface was blocked by injecting ethanolamine for 420 seconds at a rate of 10 uL/min.
The SPR kinetics against full-length human and cyno CEACAM5 were set up as follows. The antibody capture was performed by diluting the antibodies to a concentration of 10 nM in HBSP+ buffer. The 10 nM mAbs were captured for 20 seconds at 5 uL/min to achieve capture levels of approximately 100 RU. […] The association rate was 180 seconds at 30 uL/min. The dissociation rate was 600 seconds at 30 uL/min. Regeneration was performed using two injections of 3M magnesium chloride MgCl₂ for 30 seconds at 30 uL/min. A data fit was performed using a 1:1 binding model with global Rmax. Rmax reflects the maximal response when all ligand is occupied.

[4] = biological target: T3, human CEACAM1 on CHO-S cells (human, UniProt P13688 35-526); test: flow cytometry on CHO-S (CEACAM-1) cells
T3 construct: whole, on cells; also called CHO-S-huCEACAM1
T3 sequence (looked up): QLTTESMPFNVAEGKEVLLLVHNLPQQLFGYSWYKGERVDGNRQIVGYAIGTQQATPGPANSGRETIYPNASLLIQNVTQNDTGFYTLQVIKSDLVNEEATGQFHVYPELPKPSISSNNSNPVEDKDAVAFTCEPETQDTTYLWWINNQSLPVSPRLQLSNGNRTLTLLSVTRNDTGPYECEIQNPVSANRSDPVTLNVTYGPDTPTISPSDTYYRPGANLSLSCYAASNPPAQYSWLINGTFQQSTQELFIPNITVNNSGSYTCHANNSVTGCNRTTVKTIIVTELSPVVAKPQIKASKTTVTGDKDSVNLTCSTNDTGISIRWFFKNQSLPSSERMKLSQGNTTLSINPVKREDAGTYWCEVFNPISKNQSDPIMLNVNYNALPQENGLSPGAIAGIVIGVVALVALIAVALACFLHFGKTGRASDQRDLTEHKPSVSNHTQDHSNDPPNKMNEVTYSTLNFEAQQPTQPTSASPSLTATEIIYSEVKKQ

[5] = biological target: T1, human CEACAM5 on cells; test: FACS on MKN45 cells
[6] = biological target: T4, human CEACAM6 on HCT116 cells (human, UniProt P40199 35-320); test: flow cytometry on HCT-116 (CEACAM-6) cells
T4 construct: whole, on cells; also called HCT116-huCEACAM6
T4 sequence (looked up): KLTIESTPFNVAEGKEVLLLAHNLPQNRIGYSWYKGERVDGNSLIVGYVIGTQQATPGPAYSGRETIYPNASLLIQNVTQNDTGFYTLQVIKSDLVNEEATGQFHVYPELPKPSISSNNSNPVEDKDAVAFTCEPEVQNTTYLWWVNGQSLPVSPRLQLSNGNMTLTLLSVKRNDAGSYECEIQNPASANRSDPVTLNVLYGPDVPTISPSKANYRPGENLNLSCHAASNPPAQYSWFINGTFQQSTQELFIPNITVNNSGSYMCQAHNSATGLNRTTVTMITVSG

[7] = biological target: T5, human CEACAM7 (R&D Systems catalog #9010-CM-050) (human, UniProt Q14002 36-242, limits assumed); test: SPR
T5 sequence (looked up): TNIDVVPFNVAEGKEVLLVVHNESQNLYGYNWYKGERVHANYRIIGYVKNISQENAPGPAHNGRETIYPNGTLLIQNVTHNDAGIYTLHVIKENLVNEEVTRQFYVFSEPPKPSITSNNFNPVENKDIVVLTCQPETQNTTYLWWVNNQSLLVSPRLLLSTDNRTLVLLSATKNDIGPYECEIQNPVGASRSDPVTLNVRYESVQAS

[8] = biological target: T6, human CEACAM8 (R&D Systems catalog #9639-CM-050) (human, UniProt P31997 35-320, limits assumed); test: SPR
T6 sequence (looked up): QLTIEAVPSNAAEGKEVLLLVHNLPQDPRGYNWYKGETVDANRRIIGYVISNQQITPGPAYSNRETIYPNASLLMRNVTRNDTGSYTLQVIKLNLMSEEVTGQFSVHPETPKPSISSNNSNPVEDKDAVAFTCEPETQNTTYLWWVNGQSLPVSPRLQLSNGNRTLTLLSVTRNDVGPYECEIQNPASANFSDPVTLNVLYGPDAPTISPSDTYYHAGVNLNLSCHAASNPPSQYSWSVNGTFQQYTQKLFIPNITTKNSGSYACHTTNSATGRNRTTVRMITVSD

[9] = biological target: T1, human CEACAM5 on cells; test: FACS on BxPC3 cells

Row | Binder | EC50 [1] [nM] | Ls174T 5-day cytotoxicity (AUC), antibody conjugated to Compound A' [2] | MKN45 5-day cytotoxicity (AUC), antibody conjugated to Compound A' [2] | Kd [3] [nM] | koff [3] [s⁻¹] | kon [3] [M⁻¹ s⁻¹] | binding result [4] | EC50 [5] [nM] | binding result [6] | binding result [7] | binding result [8] | EC50 [9] [nM] | Ls174T 5-day cytotoxicity (AUC) [2] | MKN45 5-day cytotoxicity (AUC) [2]
1 | MBP003 (antibody, V domains shown, also called hIgG1 form of MBP004) VH: QVQLVESGGGVVQPGRSLRLSCAASGITFSSHGMHWVRQAPGKGLEWVTFISYDGSYKSYVDSVKGRFTISRDNSKNTLYLQMNSLRAEDTAVYYCATGLTGTGAFDIWGQGTMVTVSS VL: not shown | 1.7 | 18500 | 24400 | 23.4 | 0.000982 | 42000 | no binding (tested: 300 nM) | 2.4 | no binding (tested: 300 nM) | no binding | no binding | 1.9 |  | 
2 | MBP004 (antibody, V domains shown) VH: QVQLVESGGGVVQPGRSLRLSCAASGITFSSHGMHWVRQAPGKGLEWVTFISYDGSYKSYVDSVKGRFTISRDNSKNTLYLQMNSLRAEDTAVYYCATGLTGTGAFDIWGQGTMVTVSS VL: not shown |  |  |  | 17.3 | 0.00131 | 76000 |  |  |  |  |  |  | 865 | 2380
3 | MBP006 (antibody, V domains shown) VH: QVQLVESGGGVVQPGRSLRLSCAASGITFSSHGMHWVRQAPGKGLEWVTFISYDGSYISYVDSVKGRFTISRDNSKNTLYLQMNSLRAEDTAVYYCATGLTGTGANDIWGQGTMVTVSS VL: not shown |  |  |  | 6.03 | 0.000513 | 85100 |  |  |  |  |  |  | 902 | 2440
4 | MBP007 (antibody, IgG1, V domains shown) VH: QVQLVESGGGVVQPGRSLRLSCAASGIYFSSHGMHWVRQAPGKGLEWVTFISYDGSYKSYVDSVKGRFTISRDNSKNTLYLQMNSLRAEDTAVYYCATGLTGTGANDIWGQGTMVTVSS VL: EIVLTQSPGTLSLSPGERATLSCRASQSVSSSYLAWYQQKPGQAPRLLIYGASSRATGIPDRFSGSGSGTDFTLTISRLEPEDFAVYYCQQNKPSPYTFGQGTKLEIK |  |  |  | 21.5 | 0.00171 | 79600 |  |  |  |  |  |  | 834 | 2070
5 | MBP011 (antibody, IgG1, V domains shown) VH: QVQLVESGGGVVQPGRSLRLSCAASGITFSSHGMHWVRQAPGKGLEWVTFISYDGSIKSYVDSVKGRFTISRDNSKNTLYLQMNSLRAEDTAVYYCATGLTGTGAFDIWGQGTMVTVSS VL: not shown |  |  |  | 14.2 | 0.000671 | 47100 |  |  |  |  |  |  | 939 | 1770
6 | MBP008 (antibody, IgG1, V domains shown) VH: QVQLVESGGGVVQPGRSLRLSCAASGITFSSHGMHWVRQAPGKGLEWVTFISYDGSYKSYVDSVKGRFTISRDNSKNTLYLQMNSLRAEDTAVYYCATGLTGTNALDIWGQGTMVTVSS VL: not shown |  |  |  | 5.91 | 0.000527 | 89200 |  |  |  |  |  |  | 1140 | 2200
7 | MBP009 (antibody, IgG1, V domains shown) VH: QVQLVESGGGVVQPGRSLRLSCAASGIYFSSHGMHWVRQAPGKGLEWVTFISYDGSYKSYVDSVKGRFTISRDNSKNTLYLQMNSLRAEDTAVYYCATGLTGTGAFDIWGQGTMVTVSS VL: not shown |  |  |  | 2.78 | 0.00048 | 172000 |  |  |  |  |  |  | 1040 | 2200
8 | MBP010 (antibody, IgG1, V domains shown) VH: QVQLVESGGGVVQPGRSLRLSCAASGITFSSHGMHWVRQAPGKGLEWVTFISYDSSYKSYVDSVKGRFTISRDNSKNTLYLQMNSLRAEDTAVYYCATGLTGTGAFDIWGQGTMVTVSS VL: EIVLTQSPGTLSLSPGERATLSCRASQSVSSSYLAWYQQKPGQAPRLLIYGASSRATGIPDRFSGSGSGTDFTLTISRLEPEDFAVYYCQQNKRSPYTFGQGTKLEIK |  |  |  | 20.4 | 0.00102 | 50000 |  |  |  |  |  |  | 910 | 1360
9 | MBP005 (antibody, V domains shown) VH: QVQLVESGGGVVQPGRSLRLSCAASGIYFSSHGMHWVRQAPGKGLEWVTFISYDGSYKSYVDSVKGRFTISRDNSKNTLYLQMNSLRAEDTAVYYCATGLTGTGAFDIWGQGTMVTVSS VL: not shown |  |  |  |  |  |  |  |  |  |  |  |  | 964 | 2350
